This is an account of results in article PMC5955111, “The multifunctional protein YB-1 potentiates PARP1 activity and decreases the efficiency of PARP1 inhibitors”.

One data set addresses YB-1 (human, UniProt P67809 1-324). In words: fluorescence anisotropy; no PARP1; 100 nM DNA, 0-1600 nM YB-1; 1x RB (composition not in the material); anisotropy at 25 C; EMSA: 37 C 10 min, 7.6% native PAGE in 25 mM Tris-borate pH 8.3 at 4 C; DNA 100 nM (anisotropy), 40 nM in Methods vs 100 nM in Figure 1B legend (EMSA). As to conditions: protein: recombinant; tags: His-tag; label: 3'-FAM on ODN1; for gel shift ODN1 also 5'-32P; blunt 32-bp duplex with a nick between ODN2 and ODN3; ODN1:ODN2:ODN3 annealed 1:1.2:1.2. (Polarisation of emitted light reports the rotation of a fluorescent probe.)

The target in the next data set is YB-1;PARP1 (human;human, UniProt P67809;P09874 1-324;1-1014, |). In words: fluorescence anisotropy; 200 nM PARP1, 100 nM DNA, 0-1600 nM YB-1; ternary complex; 1x RB (composition not in the material); anisotropy at 25 C; EMSA: 37 C 10 min, 7.6% native PAGE in 25 mM Tris-borate pH 8.3 at 4 C; DNA 100 nM (anisotropy), 40 nM in Methods vs 100 nM in Figure 1B legend (EMSA). To be noted: protein: recombinant;recombinant; tags: His-tag;; label: 3'-FAM on ODN1; for gel shift ODN1 also 5'-32P; blunt 32-bp duplex with a nick between ODN2 and ODN3; ODN1:ODN2:ODN3 annealed 1:1.2:1.2.
YB-1;PARP1, sequence (P67809 whole entry, chain 1 of 2): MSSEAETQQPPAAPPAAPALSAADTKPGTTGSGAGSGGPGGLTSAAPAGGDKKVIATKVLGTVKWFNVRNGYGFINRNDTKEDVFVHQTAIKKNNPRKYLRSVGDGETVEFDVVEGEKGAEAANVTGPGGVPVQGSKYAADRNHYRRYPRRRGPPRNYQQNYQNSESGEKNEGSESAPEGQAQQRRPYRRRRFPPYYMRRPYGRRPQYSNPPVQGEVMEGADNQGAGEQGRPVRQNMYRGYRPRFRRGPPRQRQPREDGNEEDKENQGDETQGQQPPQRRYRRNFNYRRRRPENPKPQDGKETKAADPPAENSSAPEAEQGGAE
YB-1;PARP1, sequence (P09874 whole entry, chain 2 of 2): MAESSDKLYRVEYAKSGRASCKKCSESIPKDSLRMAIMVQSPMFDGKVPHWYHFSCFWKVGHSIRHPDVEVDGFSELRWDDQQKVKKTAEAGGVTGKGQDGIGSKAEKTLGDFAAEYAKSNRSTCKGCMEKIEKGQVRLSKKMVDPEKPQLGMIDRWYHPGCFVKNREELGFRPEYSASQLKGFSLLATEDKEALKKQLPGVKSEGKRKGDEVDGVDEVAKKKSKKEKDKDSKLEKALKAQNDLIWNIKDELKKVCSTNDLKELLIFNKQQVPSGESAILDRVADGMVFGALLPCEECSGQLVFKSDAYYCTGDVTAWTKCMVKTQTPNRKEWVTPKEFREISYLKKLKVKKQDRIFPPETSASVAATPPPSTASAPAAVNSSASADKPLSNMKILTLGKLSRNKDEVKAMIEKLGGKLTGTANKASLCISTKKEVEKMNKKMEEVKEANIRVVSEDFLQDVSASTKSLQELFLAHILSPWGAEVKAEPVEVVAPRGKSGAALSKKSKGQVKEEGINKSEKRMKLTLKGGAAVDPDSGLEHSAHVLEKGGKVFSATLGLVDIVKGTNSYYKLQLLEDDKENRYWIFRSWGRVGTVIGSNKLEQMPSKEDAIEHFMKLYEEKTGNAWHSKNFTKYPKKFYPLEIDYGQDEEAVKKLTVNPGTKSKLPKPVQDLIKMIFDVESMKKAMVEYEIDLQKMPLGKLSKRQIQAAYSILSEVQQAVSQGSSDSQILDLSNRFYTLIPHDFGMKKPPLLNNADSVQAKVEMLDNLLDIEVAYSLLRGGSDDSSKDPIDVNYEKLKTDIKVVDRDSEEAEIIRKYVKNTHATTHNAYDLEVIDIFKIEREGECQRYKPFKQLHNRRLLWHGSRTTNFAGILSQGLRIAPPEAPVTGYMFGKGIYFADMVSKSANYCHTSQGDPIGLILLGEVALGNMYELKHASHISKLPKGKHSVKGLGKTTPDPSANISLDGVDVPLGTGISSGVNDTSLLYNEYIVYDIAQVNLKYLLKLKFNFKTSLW

YB-1, sequence (P67809 whole entry): as the sequence (P67809 whole entry, chain 1 of 2) above

B1: Nick (ODN1+ODN2+ODN3) (dsDNA)
DNA 1: GGAAGACCCTGACGTTTCCCAACTTTATCGCC
DNA 2: GGCGATAAAGTTGGG
DNA 3: AAACGTCAGGGTCTTCC
In the case of B1, the binding result in the data set with YB-1 and in the data set with YB-1;PARP1 was “binds” in each case.
